US6569458B1, “Process for producing small particles of biologically active molecules” (Alkermes Controlled Therapeutics, Inc., priority 1989, dated 2003)

Experiments:
[1] = Diameter of particles by light microscopy; format: physicochemical
Protocol: A 250 mg sample of the enzyme horse radish peroxidase (HRP) (Sigma Chemical Co, St. Louis, Mo.) was dissolved in 10 ml of a 0.05 M phosphate buffer solution having a pH of 7.2. The solution was atomized through an ultrasonic nozzle (SonoTek Corp., Model 8700-60MS) into a stirred container of liquid nitrogen. The liquid nitrogen containing the frozen atomized spheres was next placed in a −80° C. freezer until the liquid nitrogen evaporated, about one to two hours. The frozen protein spheres were then placed in a lyophilizer (Virtis Company Inc., Model 10-MR-TR) for at least 12 hours to produce porous particles.
The sample prepared from 100 mg ammonium bicarbonate/ml was suspended in ethyl acetate and fragmented by ultrasonic irradiation.
This was ultrasonicated to form frozen particles which were lyophilized according to the procedure of Example 1.

[2] = Particle size analysis of fragmented particles (Microtrac small particle analyzer); format: physicochemical; conditions: for mean particle diameter / size distribution for the effective diameters: ammonium bicarbonate buffer, ethyl acetate, ultrasonic irradiation; for Particle Size: sonicated 5 min; for mean particle diameter after five minutes sonication: atomized into liquid nitrogen, lyophilized, sonicated in ethanol 5 min
Protocol: A 50 mg sample of the lyophilized microspheres was suspended in 5 ml of 100 percent ethanol solution and cooled in an ice water bath to 0° C. With continuous cooling, the HRP porous particles were then exposed to an ultrasonic probe (Virtis Company Inc., Virsonic 300) for different times. Samples were analyzed for particle size diameter on a Microtrac Model 7995 Small Particle Analyzer (Leeds and Northrup).
The hemoglobin particles were suspended in ethyl acetate and fragmented by subjecting them to ultrasonic irradiation with cooling by an ice bath.

[3] = HRP enzyme activity, rate of oxidation of p-anisidine; format: biochemical
Protocol: The activity of the HRP was determined after the lyophilization step and after the ultrasonication step. The method used to determine the enzyme activity is based upon the rate of oxidation of p-anisidine and is described in detail in The Worthington Enzyme Manual, Worthington, D. D., (ed.), Worthington Biochemical Corp., Freehold, N.J., p. 254 (1988).

[4] = SOD enzyme activity, inhibition of the reduction of nitro-blue tetrazolium by the superoxide anion; format: biochemical
Protocol: The activity of the SOD was determined after the lyophilization step and after the ultrasonication step. The method used to determine the enzyme activity is based upon the ability of SOD to inhibit the reduction of nitro-blue tetrazolium by the superoxide anion. This assay is described in detail by Winterbourne, et al., in “The Estimation of Red Cell Superoxide Dismutase Activity,” J. Lab. Clin. Med., 85, 337 (1975). After the lyophilization step, the SOD had 94% of its original activity. After the ultrasonication step, the SOD has 91% of its original activity.

[5] = Scanning electron micrographs (SEM) of particles; format: physicochemical
Protocol: 125 mg bovine hemoglobin dissolved in 5 ml 0.05 M ammonium bicarbonate was formed into particles by spraying and lyophilization, according to the procedure of Example 1. […] A control solution containing only ammonium bicarbonate was also sprayed and lyophilized as described in Example 1.
The hemoglobin particles were suspended in ethyl acetate and fragmented by subjecting them to ultrasonic irradiation with cooling by an ice bath. When the resulting particles were subjected to particle size analysis using a Leeds & Northrup Microtrac small particle analyzer, the mean particle diameter was 3.7±2.8 micrometers.

[6] = Particle size analysis of fragmented particles (Microtrac small particle analyzer); format: physicochemical; conditions: ethyl acetate
[7] = Heme absorption, second derivative spectra of processed hemoglobin; format: physicochemical, bovine; conditions: homogenized particles stored in ethyl acetate for seven days, dissolved in 0.2 M sodium phosphate pH 7.7
Protocol: The homogenized hemoglobin particles were stored in ethyl acetate for seven days, after which the solvent was decanted and the hemoglobin dried under vacuum at room temperature. The resulting solid was dissolved in 0.2 M sodium phosphate pH 7.7, and its heme absorption compared with that of freshly dissolved bovine hemoglobin, as well as with hemoglobin denatured in 6 M guanidinium chloride, using a Hewlett Packard diode array spectrophotometer. In order to accentuate spectral features, the second derivative of absorption with respect to wavelength was obtained for each sample.

Molecule: NCC(=O)O [Glycine]
- mean diameter of porous particles ([1]; light microscopy, after lyophilization, before ultrasonication): 24.4±14.6 micrometers
- mean diameter after ultrasonication ([2]; […] solution in deionized water, ultrasonication for 4 min): 3.2±1.9 micrometers

Molecule: horse radish peroxidase [HRP]
- diameter of the porous spheres after lyophilization ([1]; before sonication, range): 25-35 micrometers
- mean particle size as a function of time of ultrasonication ([2]; after 100 seconds ultrasonication): under five
- mean particle diameter / size distribution for the effective diameters [2]: 2.8±2.2 micrometers
- Particle Size ([2]; citrate/phosphate buffer pH 5.2): 2.9 ± 2.1 µm
- Particle Size ([2]; phosphate buffer pH 7.2): 3.5 ± 2.8 µm
- Particle Size ([2]; tris buffer pH 9.1): 6.2 ± 3.7 µm
- original activity retained after each step of the particle size reduction process ([3]; after the lyophilization step and after the ultrasonication step, phosphate buffer pH 7.2, ethanol): ≥ 90%
- activity retained during the process ([3]; ammonium bicarbonate buffer, ethyl acetate, ultrasonic fragmentation (Example 13)): 90%

Molecule: dextran
- mean particle size as a function of solution concentration ([2]; 20, 10, 5, 1, 2.5 and 0.5 percent solutions, ethanol, ultrasonicated five minutes): smallest particles are produced using 0.5 to 5% dextran solutions

Molecule: catalase
- mean particle diameter after five minutes sonication [2]: 4.5±3.3 micrometers

Molecule: superoxide dismutase [SOD]
- mean particle diameter after five minutes sonication [2]: 2.7±2.1 micrometers
- original activity after the lyophilization step ([4]; after lyophilization): 94%
- original activity after the ultrasonication step ([4]; after ultrasonication): 91%

Molecule: heparin [reference compound]
- mean particle diameter after five minutes sonication [2]: 6.9±4.0 micrometers

Molecule: bovine hemoglobin
- mean particle diameter / size distribution for the effective diameters [2]: 3.7±2.8 micrometers
- mean particle diameter after five minutes sonication [2]: 1.8±1.3 micrometers
- mean particle diameter after 5 minutes sonication ([2]; sprayed into liquid argon before lyophilization): 3.6±2.8 micrometers
- length of flat irregular plates (SEM of sonicated particles) [5]: ~1.0 micrometer
- thickness of flat irregular plates (SEM of sonicated particles) [5]: 0.1 micrometer
- size distribution for the effective diameters ([6]; after 80 sec of homogenization): 7.2±3.7 micrometers
- particle diameter size distribution ([6]; after 300 sec of homogenization): 6.6±3.7 micrometers
- second derivative heme absorption spectrum compared with fresh hemoglobin [7]: identical

Molecule: C[C@]12CC[C@H]3[C@@H](CCC4=CC(=O)CC[C@@]43C)[C@@H]1CC[C@@H]2O [testosterone, reference compound]
- mean diameter of resulting particles ([2]; […] solution in 1,4 dioxane): 5.4±2.9 micrometers
